{"source": "patent US20100263089A1", "about": "“USE OF P[…] FROM A PA1B LEGUME ALBUMEN AS INSECTICIDE” (Institut National de la Recherche Agronomique, priority 1998, published 2010)", "key": {"[1]": {"experiment": "Stability of the entomotoxic activity (storage in dry seeds, heating)", "procedure": "In addition, this activity is not affected by heating to 100° C."}, "humans or higher animals": {"test_system": "humans or higher animals", "settings": "present in legumes of the conventional diet; no test described; cited from earlier work"}}}
{"substance": "PAlb protein: pea albumin PA1b (SEQ ID NO: 7) described by HIGGINS et al. (ASCNGVCSPFEMPPCGTSACRCIPVGLVVGYCRNPSG)", "values": [{"measurement": "entomotoxic/insecticidal activity after storage", "setting": "[1]; dry seeds stored for several years", "result": "conserves its insecticidal activity"}, {"measurement": "entomotoxic/insecticidal activity after heating", "setting": "[1]; heating to 100° C.", "result": "not affected"}, {"measurement": "toxicity for humans or higher animals", "setting": "humans or higher animals", "result": "not toxic"}]}
